# Tested on: NCCC[C@H](N)C(=O)O
# Assay: cells, lysate or membranes
# Settings: other: direct uptake into LLCPK-TREx-hCAT1 cells
# Chain of hCAT1 (Homo sapiens) (chain, as listed by the source): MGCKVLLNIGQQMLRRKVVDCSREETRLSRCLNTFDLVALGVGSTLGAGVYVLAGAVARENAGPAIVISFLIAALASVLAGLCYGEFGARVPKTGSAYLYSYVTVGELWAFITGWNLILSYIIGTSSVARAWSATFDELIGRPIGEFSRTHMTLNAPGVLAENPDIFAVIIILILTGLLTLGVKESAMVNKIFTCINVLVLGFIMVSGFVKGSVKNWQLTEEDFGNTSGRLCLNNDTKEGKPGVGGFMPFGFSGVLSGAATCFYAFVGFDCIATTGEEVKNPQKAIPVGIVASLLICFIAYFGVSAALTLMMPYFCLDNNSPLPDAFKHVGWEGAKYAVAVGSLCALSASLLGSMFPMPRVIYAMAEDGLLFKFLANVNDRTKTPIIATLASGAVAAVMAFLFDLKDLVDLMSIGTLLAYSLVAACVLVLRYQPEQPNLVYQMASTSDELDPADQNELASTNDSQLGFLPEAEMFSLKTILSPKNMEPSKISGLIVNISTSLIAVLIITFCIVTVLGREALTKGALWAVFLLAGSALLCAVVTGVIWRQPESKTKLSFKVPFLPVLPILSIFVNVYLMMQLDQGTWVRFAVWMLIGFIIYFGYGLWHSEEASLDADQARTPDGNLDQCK
substance,measurement,setting,value
hCAT1 (Homo sapiens),Km,,200 µM
same,Km,"5 minutes at room temperature, specific uptake (+TET minus no TET)",184 µM

# — patent US7670782B2, “Screening of compounds for CAT1 transporter activity” (XenoPort, Inc., priority 2005, dated 2010)
